Where two headings read alike, the source gives them in different places.
Tests used:
[1] = target: Streptococcus thermophilus QueG (epoxyqueuosine reductase) (Streptococcus thermophilus); assay: native MS; nano-ESI, Waters Synapt G2, protein at 3-30 uM in anaerobic 100 mM ammonium acetate pH 6.8; monomer to dimer
[2] = target: Streptococcus thermophilus QueG (epoxyqueuosine reductase) (Streptococcus thermophilus); assay: as above; remark: listed apart in the source

- proportion of dimer [1]: < 5%
- proportion of dimer [2]: 5%
- stoichiometry N [2]: 2
Substance: Streptococcus thermophilus QueG (epoxyqueuosine reductase) (enzyme)
